# Laboratory results from patent publication US20210101998A1 (Pfizer, published 2021).
# Positions count from the first letter of the chain named. Read-outs that look alike come from different tables or passages of the source.
# T1: murTFPI K1K2 (mouse)
# T1 construct: also called Mouse TFPI K1K2; mouse TFPI
# T1 chain: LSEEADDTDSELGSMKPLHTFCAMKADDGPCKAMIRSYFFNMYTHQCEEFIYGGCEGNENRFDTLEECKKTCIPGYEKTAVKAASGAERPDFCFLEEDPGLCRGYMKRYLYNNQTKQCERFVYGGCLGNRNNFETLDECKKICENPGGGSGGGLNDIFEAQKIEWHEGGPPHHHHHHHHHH
# T2: rabTFPI K1K2 (rabbit, limits assumed)
# T2 construct: also called Rabbit TFPI K1K2; rabbit TFPI
# T2 chain: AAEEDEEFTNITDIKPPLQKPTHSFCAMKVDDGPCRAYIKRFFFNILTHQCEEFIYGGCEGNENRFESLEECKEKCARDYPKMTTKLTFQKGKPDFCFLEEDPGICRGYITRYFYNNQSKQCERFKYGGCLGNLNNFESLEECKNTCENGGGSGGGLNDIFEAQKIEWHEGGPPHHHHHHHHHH
# T3: ratTFPI K1K2 (rat)
# T3 chain: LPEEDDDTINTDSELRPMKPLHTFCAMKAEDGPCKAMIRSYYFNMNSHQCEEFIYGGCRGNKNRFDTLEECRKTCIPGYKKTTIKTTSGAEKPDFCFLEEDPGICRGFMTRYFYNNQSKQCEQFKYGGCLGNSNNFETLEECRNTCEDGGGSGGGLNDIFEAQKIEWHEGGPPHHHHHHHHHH
# T4: cyno K1 (cynomolgus monkey, UniProt Q28864 29-115 (rhesus entry), limits assumed)
# T4 construct: also called K1 domain alone
# T4 chain: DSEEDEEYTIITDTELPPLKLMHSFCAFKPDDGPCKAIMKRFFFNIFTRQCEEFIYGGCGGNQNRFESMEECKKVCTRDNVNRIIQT
# B1: TFPI-24 (antibody, human IgG1, lambda, V domains shown)
# VH: EVQLVESGGGSVQPGRSLRLSCAVSGLTIDNYAMQWVRQRPGKGLEWVSGISGNSRSIGYADSVKGRLTISRDNAKNSLYLQIDSLRADDTALYYCAIFLHESDYWGQGTLVTVSS
# VL: QSVLTQPPSVSGTPGQRVTISCSGSTSNIGTMYVHWYQHVPGTAPKLLIYRNNHRPSGVPDRFSGSKSGTSGSLAISGLRSEDEADYYCLAWDDTLRAYVFGTGTKVTVLG
# notes: Human IgG1-3M from phage display; also called mAb-TFPI-24; clone 24
# B2: TFPI-118 (antibody, human IgG1, lambda, V domains shown)
# VH: B1 VH with S11L, R40A, L68F, I83M, D84N, D89E
# VL: B1 VL with V10A, H39Q, V40L, G72A
# notes: Germlined variant of TFPI-24: VL of TFPI-113 paired with VH of TFPI-108
# B3: 2A8 (antibody, human IgG1, lambda, V domains shown)
# VH: QVQLVESGGGLVQPGGSLRLSCAASGFTFRSYGMSWVRQAPGKGLEWVSSIRGSSSSTYYADSVKGRFTISRDNSKNTLYLQMNSLRAEDTAVYYCARKYRYWFDYWGQGTLVTVSS
# VL: DIELTQPPSVSVAPGQTARISCSGDNLRNYYAHWYQQKPGQAPVVVIYYDNNRPSGIPERFSGSNSGNTATLTISGTQAEDEADYYCQSWDDGVPVFGGGTKLTVLG
# B4: 2A8-200 (antibody, human IgG1, lambda, V domains shown)
# VH: B3 VH with S35D, S55R, K99L
# VL: B3 VL with Y48F, N51V, D91W
# notes: also called Anti-TFPI-2A8-200
# B5: hz4D8 (antibody, human IgG1, kappa, V domains shown)
# VH: EVQLVESGGGLVQPGGSLRLSCAASGYTFTDYNLDWVRQAPGKGLEWVADINPINGATLYNQKFKGRFTISRDQAKNSLYLQMNSLRAEDTAVYYCARYYGDYDAMDYWGQGTLVTVSS
# VL: DIQMTQSPSSLSASVGDRVTITCKASQDVHTAVAWYQQKPGKAPKLLIYWASTRHTGVPSRFSGSGSGTDYTLTISSLQPEDFATYYCQQHYTTPYTFGQGTKLEIKR
# notes: also called 4D8-Vk1.1 × VH1.4; 4D8 Vk 1.1 × VH 1.4
# Key:
# humTFPI K1K2 [1] = target: humTFPI K1K2 (human); experiment: cell-based or functional assay
# humTFPI K1K2 [2] = target: T5, humTFPI K1K2 (human); experiment: SPR, antibody ligand, TFPI analyte
# T5 construct: Biotinylated on the AviTag for ELISA; also called Human TFPIα K1K2; humTFPI K1K2-aviHis10
# Procedure: (§1) The flow cells were activated by injecting a 1:1 mixture of 400 mM 1-Ethyl-3-(3-dimethylaminopropyl) carbodiimide hydrochloride (EDC) and N-hydroxysuccinimide (NHS) for 7 minutes at a flow rate of 10 μl/minute. Anti-human IgG antibody was diluted to 25 μg/ml in 10 mM Sodium Acetate pH 5.0 and injected over all flow cells for 7 minutes at 10 ul/minute. All flow cells were blocked with 1 M Ethanolamine-HCL (ETH) for 7 minutes at 10 μl/minute. Final immobilization level of the capture antibody was approximately 10,000 resonance units (RU). The running buffer for immobilization and kinetics was 10 mM HEPES pH 7.4, 150 mM NaCl, 3 mM EDTA, 0.05% (v/v) Tween-20 (HBS-EP+). […] Flow cell 1 was used as a reference surface. […] At the end of each cycle, the entire anti-IgG surface was regenerated by a 60 second pulse of 3 M MgCl2. Kinetic assays were conducted at 25° C. at a collection rate of 10 Hz on a BIAcore T200 instrument (GE Healthcare). Rate constants and affinities were determined by fitting the data to a 1:1 model in BIAcore T200 Evaluation software version 1.0 (GE).
# humTFPI K1K2 [3] = target: T5, humTFPI K1K2; experiment: SPR, antibody ligand, TFPI analyte; remark: listed apart in the source
# murTFPI K1K2 [4] = target: T1, murTFPI K1K2; experiment: SPR, antibody ligand, TFPI analyte
# humTFPI K1K2 [5] = target: T5, humTFPI K1K2; experiment: cell-based or functional assay; remark: listed apart in the source
# rabTFPI K1K2 [6] = target: T2, rabTFPI K1K2; experiment: SPR, summary table
# Procedure: as §1
# ratTFPI K1K2 [7] = target: T3, ratTFPI K1K2; experiment: SPR, summary table
# Procedure: as §1
# rabTFPI K1K2 [8] = target: T2, rabTFPI K1K2; experiment: SPR, antibody ligand, TFPI analyte;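 note: surface plasmon resonance on a BIAcore T200 at 25 °C, test antibody captured on immobilized anti-human IgG, TFPI K1K2 flowed as analyte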
# Procedure: as §1
# ratTFPI K1K2 [9] = target: T3, ratTFPI K1K2; experiment: SPR, antibody ligand, TFPI analyte;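 note: surface plasmon resonance on a BIAcore T200 at 25 °C, test antibody captured on immobilized anti-human IgG, TFPI K1K2 flowed as analyte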
# Procedure: as §1
# cyno K1 = target: T4, cyno K1; experiment: not told
# cyno TFPI K2 = target: T6, cyno TFPI K2 (cynomolgus monkey, UniProt Q28864 116-177 (rhesus entry), limits assumed); experiment: not told
# T6 construct: K2 fragment cut out of cynTFPI K1K2 with human neutrophil elastase, residual AviTag trimmed with AspN; also called Cynomolgus TFPI K2 domain; cyno K2
# Procedure: Based on buried surface area (BSA) and percent BSA (% BSA) for residues at the Fab TFPI K1K2 interface, the epitope and paratope of the complex were determined.
# cynTFPI K1K2 [10] = target: T7, cynTFPI K1K2 (cynomolgus monkey); experiment: SPR, antibody ligand, TFPI analyte;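 note: surface plasmon resonance on a BIAcore T200 at 25 °C, test antibody captured on immobilized anti-human IgG, TFPI K1K2 flowed as analyte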
# T7 construct: also called Cynomolgus Monkey TFPI K1K2; cyno TFPI K1K2
# Procedure: as §1
# humTFPI K1K2 [11] = target: T5, humTFPI K1K2; experiment: SPR, antibody ligand, TFPI analyte; remark: listed apart in the source
# Procedure: as §1
# murTFPI K1K2 [12] = target: T1, murTFPI K1K2; experiment: SPR, antibody ligand, TFPI analyte
# Procedure: as §1
# cynTFPI K1K2 [13] = target: T7, cynTFPI K1K2; experiment: SPR, summary table
# Procedure: as §1
# humTFPI K1K2 [14] = target: T5, humTFPI K1K2; experiment: SPR, summary table
# Procedure: as §1
# murTFPI K1K2 [15] = target: T1, murTFPI K1K2; experiment: SPR, summary table
# Procedure: as §1
# rabTFPI K1K2 [16] = target: T2, rabTFPI K1K2; experiment: ELISA, biotinylated TFPI on streptavidin plate
# humTFPI K1K2 [17] = target: T5, humTFPI K1K2; experiment: ELISA, biotinylated TFPI on streptavidin plate
# humTFPI K1K2 [18] = target: T5, humTFPI K1K2; experiment: SPR, antibody ligand, TFPI analyte; remark: listed apart in the source
# Procedure: as §1
# humTFPI K1K2 [19] = target: T5, humTFPI K1K2; experiment: cell-based or functional assay; remark: listed apart in the source
Binder,FVIIa/TF/Xa EC50 (humTFPI K1K2 [5]),Xa Inhibition Assay EC50 (humTFPI K1K2 [5]),Kd (rabTFPI K1K2 [6]),Kd (rabTFPI K1K2 [8]),binding result (cyno K1),binding result (cyno TFPI K2),koff (rabTFPI K1K2 [8]),kon (rabTFPI K1K2 [8]),Kd (cynTFPI K1K2 [10]),koff (cynTFPI K1K2 [10]),kon (cynTFPI K1K2 [10]),Kd (humTFPI K1K2 [11]),koff (humTFPI K1K2 [11]),kon (humTFPI K1K2 [11]),Kd (murTFPI K1K2 [12]),koff (murTFPI K1K2 [12]),kon (murTFPI K1K2 [12]),Kd (cynTFPI K1K2 [13]),Kd (humTFPI K1K2 [14]),other results
B1,–,–,–,–,–,–,–,–,–,–,–,–,–,–,–,–,–,–,–,FXa EC50 (humTFPI K1K2 [1]): 23 nM; FXa-FVIIa EC50 (humTFPI K1K2 [1]): 9.3 nM; koff (humTFPI K1K2 [2]): 0.000862 s⁻¹; kon (humTFPI K1K2 [2]): 159000 M⁻¹ s⁻¹; Kd (humTFPI K1K2 [3]): 5.46 nM; koff (humTFPI K1K2 [3]): 0.000862 s⁻¹; kon (humTFPI K1K2 [3]): 159000 M⁻¹ s⁻¹; Kd (murTFPI K1K2 [4]): 24.1 nM; koff (murTFPI K1K2 [4]): 0.00596 s⁻¹; kon (murTFPI K1K2 [4]): 248000 M⁻¹ s⁻¹
B2,4.03 nM,20.8 nM,5.79 nM,5.79 nM,–,–,–,–,–,–,–,–,–,–,–,–,–,–,–,Kd (ratTFPI K1K2 [7]): 3.65 nM; Kd (ratTFPI K1K2 [9]): 3.65 nM
B3,–,–,–,1.69 nM,no binding,no binding,0.00123 s⁻¹,730000 M⁻¹ s⁻¹,13.2 nM,0.00306 s⁻¹,237000 M⁻¹ s⁻¹,10.6 nM,0.00377 s⁻¹,355000 M⁻¹ s⁻¹,33.6 nM,0.00632 s⁻¹,191000 M⁻¹ s⁻¹,–,–,–
B4,4.84 nM,2.42 nM,0.145 nM,0.145 nM,no binding,no binding,0.000277 s⁻¹,1.92e+06 M⁻¹ s⁻¹,0.637 nM,0.000809 s⁻¹,1.25e+06 M⁻¹ s⁻¹,0.327 nM,0.000381 s⁻¹,1.16e+06 M⁻¹ s⁻¹,0.455 nM,0.00117 s⁻¹,2.54e+06 M⁻¹ s⁻¹,0.637 nM,0.327 nM,Kd (murTFPI K1K2 [15]): 0.455 nM
B5,0.4 nM,6.92 nM,0.502 nM,0.502 nM,–,–,0.0029 s⁻¹,3.16e+06 M⁻¹ s⁻¹,0.067 nM,0.00195 s⁻¹,2.93e+07 M⁻¹ s⁻¹,0.42 nM,0.00132 s⁻¹,3.16e+06 M⁻¹ s⁻¹,–,–,–,0.067 nM,0.42 nM,EC50 (rabTFPI K1K2 [16]): 0.0716 nM; EC50 (humTFPI K1K2 [17]): 0.0493 nM; Kd (humTFPI K1K2 [18]): 0.293 nM; koff (humTFPI K1K2 [18]): 5.28e-05 s⁻¹; kon (humTFPI K1K2 [18]): 221000 M⁻¹ s⁻¹; FXa EC50 (humTFPI K1K2 [19]): 1.87 nM; FXa-FVIIa EC50 (humTFPI K1K2 [19]): 1.57 nM; binding result (ratTFPI K1K2 [7]): no binding; binding result (murTFPI K1K2 [15]): no binding
